Reference: PMC11871015, “Unraveling the molecular basis of substrate specificity and halogen activation in vanadium-dependent haloperoxidases” (Nature Communications, 2025)
Blank lines part the entries; values can stand above or below the molecule they belong to.

Columns and labels:
[1] = target: T1, AmVHPO (vanadium-dependent haloperoxidase from Acaryochloris marina) (Acaryochloris marina, UniProt B0C4R0, R425S); test: X-ray co-crystal structure; type: binding; conditions: 1 mM TMB; phosphate in place of vanadate; site at interface of two adjacent subunits (Glu139, Gln399, Phe401); pH 8.5; 20 °C
T1 construct: gene AM1_4975; codon-optimized synthetic gene in pET28-based vector, His-tag, E. coli BL21 (DE3); dodecamer (hexamer of dimers); active site/substrate tunnel formed by two adjacent subunits
T1 sequence (B0C4R0 entry or part of it R425S): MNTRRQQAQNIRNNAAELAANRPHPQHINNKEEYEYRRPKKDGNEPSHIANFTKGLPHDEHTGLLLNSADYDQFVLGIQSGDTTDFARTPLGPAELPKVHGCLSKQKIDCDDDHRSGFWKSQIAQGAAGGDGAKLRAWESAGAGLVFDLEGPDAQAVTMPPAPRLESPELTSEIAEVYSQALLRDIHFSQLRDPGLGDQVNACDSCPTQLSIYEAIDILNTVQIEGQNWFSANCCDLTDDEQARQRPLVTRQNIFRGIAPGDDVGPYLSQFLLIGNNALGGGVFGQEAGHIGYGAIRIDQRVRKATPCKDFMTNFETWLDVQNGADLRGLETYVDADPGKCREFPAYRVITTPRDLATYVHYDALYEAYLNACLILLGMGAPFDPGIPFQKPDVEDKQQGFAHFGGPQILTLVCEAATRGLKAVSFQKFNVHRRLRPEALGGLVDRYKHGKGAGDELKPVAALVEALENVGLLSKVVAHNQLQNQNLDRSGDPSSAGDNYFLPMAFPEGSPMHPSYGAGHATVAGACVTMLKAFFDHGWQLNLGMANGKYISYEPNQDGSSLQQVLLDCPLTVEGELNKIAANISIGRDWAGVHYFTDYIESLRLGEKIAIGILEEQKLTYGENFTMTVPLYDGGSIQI

[2] = target: AmVHPO R425D mutant (vanadium-dependent haloperoxidase from Acaryochloris marina, R425D) (Acaryochloris marina MBIC 11017); test: crystal structure; hanging drop vapor diffusion at 20 °C, protein 15 mg/mL, reservoir 0.1 M Tris pH 8.5, 2 M NH4H2PO4, 0.5 mM K3VO4; R425S solved without and with 1 mM 1,3,5-trimethoxybenzene (TMB)
[3] = target: AmVHPO R425S mutant (vanadium-dependent haloperoxidase from Acaryochloris marina, R425S) (Acaryochloris marina MBIC 11017); test: as above

X-ray co-crystal structure [1]: 8Q22 (AmVHPO R425S mutant with TMB)
Molecule: COc1cc(OC)cc(OC)c1 [compound 7, 1,3,5-trimethoxybenzene]

stoichiometry N [2]: 12
Molecule: AmVHPO R425D mutant (vanadium-dependent haloperoxidase from Acaryochloris marina, R425D) (enzyme)

stoichiometry N [3]: 12
Molecule: AmVHPO R425S mutant (vanadium-dependent haloperoxidase from Acaryochloris marina, R425S) (enzyme)
